Assay results: US20250042957A1 (Molecular Partners, published 2025)
Where two headings read alike, the source gives them in different places. One block for each binder: values may come before it.

Assays:
scCD3εγ [1] = target: T1, scCD3εγ; test: ELISA on scCD3εγ, DARPin titrated
T1 chain 1: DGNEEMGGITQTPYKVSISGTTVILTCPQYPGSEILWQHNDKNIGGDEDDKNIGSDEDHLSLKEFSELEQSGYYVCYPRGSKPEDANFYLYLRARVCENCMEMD
T1 chain 2: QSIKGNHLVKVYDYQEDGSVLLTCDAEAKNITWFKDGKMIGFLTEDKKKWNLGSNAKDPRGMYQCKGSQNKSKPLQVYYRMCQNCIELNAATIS

scCD3εγ [2] = target: T1, scCD3εγ; test: SPR, bio-scCD3εγ coated on NAD chip, DARPin 333.33-4.11 nM
scCD3εγ [3] = target: T1, scCD3εγ; test: ELISA: plate-bound biotinylated scCD3εγ, His-tagged α-CD3 mono-DARPin titrated, no VEGF
scCD3εγ [4] = target: T1, scCD3εγ; test: as above
scCD3εγ [5] = target: T1, scCD3εγ; test: as above
scCD3εγ [6] = target: T1, scCD3εγ; test: as above
scCD3εγ [7] = target: T1, scCD3εγ; test: as above
scCD3εγ [8] = target: T1, scCD3εγ; test: as above
scCD3εγ [9] = target: T1, scCD3εγ; test: as above
scCD3εγ [10] = target: T1, scCD3εγ; test: ELISA: plate-bound biotinylated scCD3εγ, His-tagged α-CD3 mono-DARPin titrated in presence of 100 nM soluble VEGF
Protocol: (§1) ELISA assays offer an easy and qualitative way to determine the binding of the Switchdrug DARPin constructs to a target. The difference in binding of Switchdrug DARPins to scCD3εγ in presence and absence of VEGF was assessed. […] Said Switchdrug DARPins were mixed with a constant concentration of VEGF (100 nM) and tested for binding to scCD3εγ. […] The difference in EC50 of a construct in presence and absence of VEGF can be referred to as the “activation window”.
(§2) Switchdrug DARPins that were mixed with VEGF were titrated and pre-incubated for 1 day with VEGF in order to establish the thermodynamic equilibrium. These samples were loaded on the ELISA plate, incubated and washed, before the bound Switchdrug DARPins were detected as described above.

scCD3εγ [11] = target: T1, scCD3εγ; test: as above
Protocol: as §1, §2

scCD3εγ [12] = target: T1, scCD3εγ; test: ELISA: plate-bound biotinylated scCD3εγ, His-tagged construct titrated, no VEGF
Protocol: (§3) The difference in binding of Switchdrug DARPins to scCD3εγ in presence and absence of VEGF was assessed. […] Said Switchdrug DARPins were mixed with a constant concentration of VEGF (100 nM) and tested for binding to scCD3εγ. […] The difference in EC50 of a construct in presence and absence of VEGF can be referred to as the “activation window”.
as §2

scCD3εγ [13] = target: T1, scCD3εγ; test: ELISA: plate-bound biotinylated scCD3εγ, His-tagged construct titrated in presence of 100 nM soluble VEGF
Protocol: as §3, §2

scCD3εγ [14] = target: T1, scCD3εγ; test: ELISA: plate-bound biotinylated scCD3εγ, His-tagged construct titrated without and with 100 nM soluble VEGF
Protocol: as §3, §2

VEGF165 [15] = target: T2, VEGF165 (UniProt P15692-4 27-191, biotinylated in the ELISA of Example 4 (site not stated)); test: ELISA: plate-bound biotinylated VEGF165, His-tagged construct titrated, no soluble VEGF, anti-His-HRP detection
T2 construct: also called biotinylated VEGF165; soluble VEGF

scCD3εγ [16] = target: T1, scCD3εγ; test: ELISA: plate-bound biotinylated scCD3εγ, His-tagged construct titrated in presence of 100 nM soluble VEGF
Protocol: as §3, §2

scCD3εγ [17] = target: T1, scCD3εγ; test: ELISA: plate-bound biotinylated scCD3εγ, His-tagged construct titrated without and with 100 nM soluble VEGF
Protocol: as §3, §2

scCD3εγ [18] = target: T1, scCD3εγ; test: ELISA: plate-bound biotinylated scCD3εγ, His-tagged construct titrated, no VEGF
Protocol: as §3, §2

scCD3εγ [19] = target: T1, scCD3εγ; test: as above
Protocol: as §2

scCD3εγ [20] = target: T1, scCD3εγ; test: ELISA: plate-bound biotinylated scCD3εγ, His-tagged construct titrated in presence of 100 nM soluble VEGF
Protocol: as §3, §2

scCD3εγ [21] = target: T1, scCD3εγ; test: ELISA: plate-bound biotinylated scCD3εγ, His-tagged construct titrated without and with 100 nM soluble VEGF
Protocol: as §3, §2

VEGF165 [22] = target: T2, VEGF165; test: SPR (ProteOn), VEGF165 immobilized, single-trace 50 nM, 25 C
VEGF165 [23] = target: T2, VEGF165; test: ELISA: plate-bound biotinylated VEGF165, His-tagged binder titrated, anti-His-HRP detection
Protocol: Binding is detected via an HRP-labeled anti-His antibody.
Then a titration of the Switchdrug DARPins was applied, incubated and washed. Detection of bound his-tagged constructs was done by anti-RGS(his)4 mAb HRP conjugate, and detected by TMB substrate.

T2 sequence (P15692 other isoform, or with tags, fused parts or gaps limits assumed): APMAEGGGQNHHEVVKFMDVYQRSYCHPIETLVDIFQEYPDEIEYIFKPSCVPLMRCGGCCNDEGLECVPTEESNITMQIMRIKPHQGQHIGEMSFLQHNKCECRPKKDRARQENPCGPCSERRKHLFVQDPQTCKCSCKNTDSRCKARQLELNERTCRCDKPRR

B2: Switchdrug DARPin 18-A (designed binder)
chain: MRGSHHHHHHGSDLGKKLLQAARAGQLDEVRELLKAGADVNAKDQYGRTPLHLAAIKGHLEIVEVLLKAGADVNAKDSLGYTPLHLAAVEGPLEIVEVLLKAGADVNAKDAYGQTPLHIAAAWGHLEIVEVLLKAVADVNAQDKSGKTPADLAARAGHQDIAEVLQKAAGSPTPTPTTPTPTPTTPTPTPTGSDLGQKLLEAAWAGQDDEVRELLKAGADVNAKNSRGWTPLHTAAQTGHLEIFEVLLKAGADVNAKNDKRVTPLHLAAALGHLEIVEVLLKAGADVNARDSWGTTPADLAAKYGHQDIAEVLQKAAGSPTPTPTTPTPTPTTPTPTPTGSDLDKKLLEAARAGQDDEVRILLKAGADVNAKDSTGWTPLHLAAPWGHPEIVEVLLKAGADVNAKDFQGWTPLHLAAAAGHLEIVEVLLKAGADVNAKDVYGWTPLHIAAASGHLEIVEVLLKAGADVNAKDWLGWTPLHLAASHGHLEIVEVLLKAGADVNAQDKSGKTPADLAARAGHQDIAEVLQKAA
notes: also called 2-in-1 DARPin18 in Format A
EC50 (read off the curve) (scCD3εγ [12]): ~200 nM | EC50 (read off the curve) (scCD3εγ [13]): ~90 nM | shift in EC50 upon addition of 100 nM VEGF (scCD3εγ [14]): ~2 fold | EC50 (read off the curve) (VEGF165 [15]): ~90 nM

B4: Switchdrug DARPin 17-1 (designed binder)
chain: MRGSHHHHHHGSDLGQKLLEAAWAGQDDEVRELLKAGADVNAKNSRGWTPLHTAAQTGHLEIFEVLLKAGADVNAKNDKRVTPLHLAAALGHLEIVEVLLKAGADVNARDSWGTTPADLAAKYGHQDIAEVLQKAAGSPTPTPTTPTPTPTTPTPTPTGSDLGKKLLQAARAGQLDEVRELLKAGADVNAKDSTGWTPLHLAAPWGHPEIVEVLLKAGADVNAKDFQGWTPLHLAAAAGHLEIVEVLLKAGADVNAKDWLGWTPLHLAASHGHLEIVEVLLKAGADVNAQDKSGKTPADLAARAGHQDIAEVLQKAA
notes: also called 2-in-1 DARPin17 in Format 1
EC50 (read off the curve) (scCD3εγ [18]): ~70 nM | EC50 (read off the curve) (scCD3εγ [19]): ~50 nM | EC50 (read off the curve) (scCD3εγ [20]): ~3 nM | shift in EC50 upon addition of 100 nM VEGF (scCD3εγ [21]): ~27 fold

B5: VEGF-binder (SEQ ID NO: 1) (designed binder)
chain: DLDKKLLEAARAGQDDEVRILLKAGADVNAKDSTGWTPLHLAAPWGHPEIVEVLLKAGADVNAKDFQGWTPLHLAAAAGHLEIVEVLLKAGADVNAQDKSGKTPADLAADAGHEDIAEVLQKAA
notes: said to be disclosed in WO 2016/156596
Kd (VEGF165 [22]): 0.21 nM | koff (VEGF165 [22]): 0.00014 s⁻¹ | kon (VEGF165 [22]): 646000 M⁻¹ s⁻¹ | EC50 (read off the curve) (VEGF165 [23]): ~0.5 nM

Next, values leading:

EC50 (read off the curve) (scCD3εγ [1]): ~3 nM | Kd (scCD3εγ [2]): 2.03 nM | EC50 (read off the curve) (scCD3εγ [3]): ~5 nM | EC50 (read off the curve) (scCD3εγ [4]): ~5 nM | EC50 (read off the curve) (scCD3εγ [5]): ~3 nM | EC50 (read off the curve) (scCD3εγ [6]): ~3 nM | EC50 (read off the curve) (scCD3εγ [7]): ~3 nM | EC50 (read off the curve) (scCD3εγ [8]): ~3 nM | EC50 (read off the curve) (scCD3εγ [9]): ~4 nM | EC50 (read off the curve) (scCD3εγ [10]): ~4 nM | EC50 (read off the curve) (scCD3εγ [11]): ~4 nM
B1: CD3-specific binding domain (SEQ ID NO: 3) (designed binder)
chain: DLGQKLLEAAWAGQDDEVRELLKAGADVNAKNSRGWTPLHTAAQTGHLEIFEVLLKAGADVNAKNDKRVTPLHLAAALGHLEIVEVLLKAGADVNARDSWGTTPADLAAKYGHQDIAEVLQKAA
modifications: biotinylated when used as immobilized SPR ligand (site not stated)
notes: also called α-CD3 DARPin

EC50 (read off the curve) (scCD3εγ [16]): ~50 nM | shift in EC50 upon addition of 100 nM VEGF (scCD3εγ [17]): ~19 fold | EC50 (read off the curve) (VEGF165 [15]): ~20 nM
B3: Switchdrug DARPin 18-B (designed binder)
chain: MRGSHHHHHHGSDLDKKLLEAARAGQDDEVRILLKAGADVNAKDSTGWTPLHLAAPWGHPEIVEVLLKAGADVNAKDFQGWTPLHLAAAAGHLEIVEVLLKAGADVNAKDVYGWTPLHIAAASGHLEIVEVLLKAGADVNAKDWLGWTPLHLAASHGHLEIVEVLLKAGADVNAQDKSGKTPADLAARAGHQDIAEVLQKAAGSPTPTPTTPTPTPTTPTPTPTGSDLGKKLLQAARAGQLDEVRELLKAGADVNAKDQYGRTPLHLAAIKGHLEIVEVLLKAGADVNAKDSLGYTPLHLAAVEGPLEIVEVLLKAGADVNAKDAYGQTPLHIAAAWGHLEIVEVLLKAVADVNAQDKSGKTPADLAARAGHQDIAEVLQKAAGSPTPTPTTPTPTPTTPTPTPTGSDLGQKLLEAAWAGQDDEVRELLKAGADVNAKNSRGWTPLHTAAQTGHLEIFEVLLKAGADVNAKNDKRVTPLHLAAALGHLEIVEVLLKAGADVNARDSWGTTPADLAAKYGHQDIAEVLQKAA
notes: also called 2-in-1 DARPin18 in Format B
